Biological target: BMP-2 (human) (UniProt P12643)
Assay: cell-based or functional assay

Chain of BMP-2 (human) (P12643 283-396 limits assumed): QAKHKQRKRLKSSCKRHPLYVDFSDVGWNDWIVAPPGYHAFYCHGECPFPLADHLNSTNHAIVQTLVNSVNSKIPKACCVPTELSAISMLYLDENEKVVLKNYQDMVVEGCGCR

## DRAGON (DRG11-Responsive Axonal Guidance and Outgrowth of Neurite), recombinant, expressed in transfected cells (from UniProt Q7TQ33 49-415) (receptor)
  BMP-dependent signaling, Msx2-Luc reporter in 10T1/2 and HepG2 cells: 8 fold
  luciferase activity of the BRE-luc reporter in LLC-PK1 cells: 14 fold

— patent US20060063208A1
